Experimental findings from US20240150440A1 (LUMEN BIOSCIENCE, published 2024) are described below.

Assay [1] has as its target T1, recombinant SARS-CoV-2 RBD with C-terminal AviTag (SARS-CoV-2, UniProt P0DTC2 319-541). The experiment in a line: BLI, biotinylated RBD on streptavidin biosensors [Cont. 4].
Assay [2] addresses T2, SARS-CoV-2 spike protein on pseudotyped lentivirus (Wuhan Reference Pseudovirus) (SARS-CoV-2, UniProt P0DTC2 14-1273). The experiment in a line: cell-based or functional assay.
For assay [3], the target named is T1, recombinant SARS-CoV-2 RBD with …. The experiment in a line: ELISA, competition with coated ACE2-Fc for RBD [Cont. 4].
Assay [4] has the same target. Put plainly: BLI, biotinylated RBD on streptavidin biosensors; OR: over-range [Cont. 2].
Assay [5] shares this target. The experiment in a line: BLI, biotinylated RBD on streptavidin biosensors [Cont. 2].
Assay [6] shares this target. The experiment in a line: BLI, biotinylated RBD on streptavidin biosensors; OR: over-range [Cont. 4].
Assay [7] concerns the target T2, SARS-CoV-2 spike protein on pseudotyped …. Put plainly: cell-based or functional assay. This is another data set of the same source.
For assay [8], the target named is T1, recombinant SARS-CoV-2 RBD with …. Put plainly: ELISA, competition with coated ACE2-Fc for RBD [Cont. 1].
Assay [9] has the same target. Put plainly: BLI, biotinylated RBD on streptavidin biosensors; OR: over-range [Cont. 1].
Assay [10] concerns the target T2, SARS-CoV-2 spike protein on pseudotyped …. Put plainly: cell-based or functional assay. The source holds these as a separate data set.
Assay [11] concerns the target T3, SARS-CoV-2 Delta Variant RBD (SARS-CoV-2 Delta variant).
T3 construct: domain: RBD; coated on ELISA plates
Put plainly: ELISA, RBD coated.

Assay [12] deals with T4, SARS-CoV-2 Alpha Variant RBD (SARS-CoV-2 Alpha variant).
T4 construct: domain: RBD; coated on ELISA plates
The experiment in a line: ELISA, RBD coated.

For assay [13], the target named is T2, SARS-CoV-2 spike protein on pseudotyped …. Put plainly: cell-based or functional assay. The source holds these as a separate data set.
Assay [14] addresses T5, SARS-CoV-2 Gamma Variant RBD (SARS-CoV-2 Gamma variant).
T5 construct: domain: RBD; coated on ELISA plates
The experiment in a line: ELISA, RBD coated.

The target in assay [15] is T6, SARS-CoV-2 Beta Variant RBD (SARS-CoV-2 Beta variant).
T6 construct: domain: RBD; coated on ELISA plates
Put plainly: ELISA, RBD coated.

The target in assay [16] is T2, SARS-CoV-2 spike protein on pseudotyped …. The experiment in a line: cell-based or functional assay. The source holds these as a separate data set.
Assay [17] has as its target SARS-CoV-2 Delta Variant spike protein on pseudotyped lentivirus (SARS-CoV-2 Delta variant). The experiment in a line: cell-based or functional assay.

B1: PP836 MBP-R5D-A1-H6 (VHH)
VHH: QVQLVESGGGLVQPGGSLRLSCAASGSISSYNAMHWFRQAPGKQREWVAGLTSSGSDGYVDSVKGRFTISRDNAKNTVYLQMNSLKPEDTAVYYCNAFSYHTYSRYDFWGQGTQVTVSS
notes: Form: Monomer
With B1, in [1], the dissociation constant (Kd) came out at 527 nM. In assay [2], the “infectivity % under 10 ug/mL VHH treatment” value (“infectivity %” below) worked out at 55%. For the same molecule, the IC50 in [3] worked out at 6.2 nM.

B2: PP817 MBP-R5A-B3-H6 (VHH)
VHH: QVQLVESGGGLVQPGGSLRLSCAASGQLDRSNAMAWFRQAPGKGREWVASITSGASTQYADSVKGRFTISRDNAKNTVYLQMNSLKPEDTAVYYCAADRYRAIQRTQYSWGQGTQVTVSS
notes: Form: Monomer
On to B2, for which the “infectivity %” value in assay [2] came out at 80%. The Kd in assay [4] was approximately 5170 nM.

B3: PP821 MBP-R5A-D6-H6 (VHH)
VHH: QVQLVESGGGLVQPGGSLRLSCAASGNDWYINSAHWYRQAPGKEREFVASVSRGGSNNYRDSVKGRFTISRDNAKNTVYLQMNSLKPEDTAVYYCAALLETSSGDYTYWGQGTQVTVSS
notes: Form: Monomer
For B3, the Kd in assay [5] came out at 100 nM. Further, in assay [2], the “infectivity %” value amounted to 76.7%.

B4: PP834 MBP-R5C-G2-H6 (VHH)
VHH: QVQLVESGGGLVQPGGSLRLSCAASGSATSINRMAWVRQAPGKEREWVAVIDSGGYTYYADSVKGRFTISRDNAKNTVYLQMNSLKPEDTAVYYCNAVPVTTDKTPMYQYWGQGTQVTVSS
notes: Form: Monomer
As to B4, the Kd in assay [6] is approximately 2120 nM. Further, the “infectivity %” value in assay [2] was 89.2%. In assay [3], the IC50 worked out at 184 nM.

B5: MBP-5HVZ-R5C-G2-H6 (VHH)
VHH: QVQLVESGGGLVQPGGSLRLSCAASGSATSINRMAWVRQAPGKEREWVAVIDSGGYTYYADSVKGRFTISRDNAKNTVYLQMNSLKPEDTAVYYCNAVPVTTDKTPMYQYWGQGTQVTVSS
notes: dimer
For the molecule B5, the Kd in assay [1] came to 29.6 nM. For the same molecule, the IC50 in assay [3] was found to be 121 nM.

B6: dimeric VHH (VHH-5HVZ-MBP) R2C-F6 (VHH)
VHH: QVQLVESGGGLVQPGGSLRLSCAASGRILAANIVHWYRQAPGKEREGVAGITTGGSNYYSDSVKGRFTISRDNAKNTVYLQMNSLKPEDTAVYYCNALGLGSASGSYESWGQGTQVTVSS
For B6, the “Pseudovirus inhibition IC50 [Cont. 1]” value in [7] amounted to 92.4 nM. For the same molecule, the IC50 in [8] came to 6.5 nM. For the same molecule, the Kd in assay [9] was approximately 0.96 nM.

B7: PP831 MBP-R5C-F3-H6 (VHH)
VHH: QVQLVESGGGLVQPGGSLRLSCAASGTIPSINYTAWYRQAPGKQRELVASLTSGDNRYYTDSVKGRFTISRDNAKNTVYLQMNSLKPEDTAVYYCNAKTVGSSYRDSYNYWGQGTQVTVSS
notes: Form: Monomer
B7: the Kd in assay [6] was approximately 5370 nM. Moreover, the “infectivity %” value in assay [2] was found to be 81.2%. Further, the 50% inhibitory concentration (IC50) in assay [3] is 151 nM.

B8: PP810 MBP-R2D-A6-H6 (VHH)
VHH: QVQLVESGGGLVQPGGSLRLSCAASGSGASIGAMHWFRQAPGKGREWVASITSAGNTYYGDSVKGRFTISRDNAKNTVYLQMNSLKPEDTAVYYCNALAGANYESQWEEYNYWGQGTQVTVSS
notes: Form: Monomer
As to B8, the IC50 in [8] worked out at 0.1 nM. Further, the Kd in assay [9] is approximately 4600 nM. For the same molecule, in assay [2], the “infectivity %” value turned out to be 77.5%.

B9: PP833 MBP-R5C-F6-H6 (VHH)
VHH: QVQLVESGGGLVQPGGSLRLSCAASGQTNSILAMHWYRQAPGKQREAVATITSGSNSTYADSVKGRFTISRDNAKNTVYLQMNSLKPEDTAVYYCAARNGKLSPKANQRLYWGQGTQVTVSS
notes: Form: Monomer
As to B9, the Kd in assay [1] was determined as 100 nM. In addition, in assay [2], the “infectivity %” value worked out at 86.2%.

B10: PP811 MBP-R2D-D3-H6 (VHH)
VHH: QVQLVESGGGLVQPGGSLRLSCAASGHIFSINNAAWVRQAPGKSREGVATIHSGGGTYYSDSVKGRFTISRDNAKNTVYLQMNSLKPEDTAVYYCNAEVSTGAGSRGRVSDVYWGQGTQVTVSS
notes: Form: Monomer
Regarding B10, the Kd in assay [9] was approximately 27000 nM. In addition, in assay [2], the “infectivity %” value was 75.9%.

B11: PP1100 MBP-5HVZ-PAPA-RN-14-H6 (VHH)
VHH: QVQLVESGGGLVQPGGSLRLSCAASGENFSGNLVHWFRQAPGKAREGVATVTSTGSGYYADSVKGRFTISRDNAKNTVYLQMNSLKPEDTAVYYCAAKHQKGEIPYYDWGQGTQVTVSS
notes: Form: Dimer
Turning to B11, in assay [10], the “Pseudovirus inhibition IC50 [Cont. 8]” value stood at 13.9 nM. Also, the “infectivity %” value in assay [2] worked out at 17.2%. The values for the EC50 in assay [11] and in assay [12] were 46.5 nM and 0.35 nM, respectively. Further, in assay [13], the “Pseudovirus neutralization IC50” value amounted to 6.95 nM.

B12: PP814 MBP-R2E-F4-H6 (VHH)
VHH: QVQLVESGGGLVQPGGSLRLSCAASGETFSSNAMHWFRQAPGKGREFVAAITSGGNDNYSDSVKGRFTISRDNAKNTVYLQMNSLKPEDTAVYYCNAPATEDTSHYPRNYWGQGTQVTVSS
notes: Form: Monomer
Consider B12, for which the “infectivity %” value in [2] amounted to 84.7%. Besides, in assay [4], the Kd is approximately 1600 nM.

B13: PP1097 MBP-5HVZ-PAPA-RN-5-H6 (VHH)
VHH: QVQLVESGGGLVQPGGSLRLSCAASGSSFRILAMHWYRQAPGKNREWVAVITSNGNTYYADSVKGRFTISRDNAKNTVYLQMNSLKPEDTAVYYCNADTLDLDDGATYNYWGQGTQVTVSS
B13: the “Pseudovirus inhibition IC50 [Cont. 8]” value in [10] is 54.5 nM. In addition, the “infectivity %” value in assay [2] amounted to 18.6%. For the same molecule, the EC50 in [11] is 244 nM; in assay [14], 58.6 nM; in [12], 0.3 nM; in assay [15] it was 95.4 nM. Besides, the “Pseudovirus neutralization IC50” value in assay [13] amounted to 27.3 nM.

B14: PP1150 MBP-5HVZ-PAPA-R5b-G1-H6 (VHH)
VHH: QVQLVESGGGLVQPGGSLRLSCAASGSIGQIVLVHWFRQAPGKQRELVAGITSPSSTYYADSVKGRFTISRDNAKNTVYLQMNSLKPEDTAVYYCNTELEGKTQGFTGKTVWYDYWGQGTQVTVSS
notes: Form: Dimer
On to B14, for which the “Pseudovirus inhibition IC50 [Cont. 3]” value in [16] worked out at 2.33 nM. In addition, in assay [2], the “infectivity %” value was 2.31%. For the same molecule, the results for the EC50 in assay [11] and in [12] were 0.86 nM and 20.1 nM, respectively. For the same molecule, the “Pseudovirus neutralization IC50” value in assay [17] turned out to be 0.43 nM; in assay [13], 2.72 nM.

B15: MBP-5HVZ-R5B-G1-H6 (VHH)
VHH: QVQLVESGGGLVQPGGSLRLSCAASGSIGQIVLVHWFRQAPGKQRELVAGITSPSSTYYADSVKGRFTISRDNAKNTVYLQMNSLKPEDTAVYYCNTELEGKTQGFTGKTVWYDYWGQGTQVTVSS
On to B15, for which the “Pseudovirus inhibition IC50 [Cont. 3]” value in [16] was determined as 5.82 nM.

B16: PP935 MBP-5HVZ-S3b-E11-H6 (VHH)
VHH: QVQLVESGGGLVQPGGSLRLSCAASGDIYSQSAMAWYRQAPGKEREFVAAITTTGSRSYKDSVKGRFTISRDNAKNTVYLQMNSLKPEDTAVYYCAAFAVRSSSVSDAYDYWGQGTQVTVSS
notes: Form: Dimer
On to B16, for which the “Pseudovirus inhibition IC50 [Cont. 8]” value in assay [10] is 68.4 nM. In addition, the “infectivity %” value in assay [2] is 48.9%. For the same molecule, the EC50 in [11] is 151 nM; in assay [14], 167 nM; in assay [12] it was 0.47 nM; in assay [15], 343 nM. The “Pseudovirus neutralization IC50” value in [13] was found to be 34.2 nM.

B17: PP837 MBP-R5D-B2-H6 (VHH)
VHH: QVQLVESGGGLVQPGGSLRLSCAASGSIWSIAFMSWYRQAPGKGREWVAAITTGNDEAYADSVKGRFTISRDNAKNTVYLQMNSLKPEDTAVYYCAANTYERTPDGRTFSYWGQGTQVTVSS
notes: Form: Monomer
B17: the Kd in [6] was approximately 2350 nM. Moreover, the “infectivity %” value in [2] was 77.6%. Besides, in assay [3], the IC50 is 3.7 nM.

B18: PP815 MBP-R5A-A1-H6 (VHH)
VHH: QVQLVESGGGLVQPGGSLRLSCAASGAELSYTAIHWFRQAPGKQREFVATINSGGSSYYADSVKGRFTISRDNAKNTVYLQMNSLKPEDTAVYYCTALLDSTYDYWGQGTQVTVSS
notes: Form: Monomer
Take B18: the “infectivity %” value in assay [2] worked out at 84.4%. Moreover, the Kd in assay [4] is approximately 2700 nM.
